Data as given in patent US20260345605A1, “THERAPEUTIC AGENTS FOR HEART FAILURE” (Ottawa Hospital Research Institute, priority 2023, published 2026).

Assays:
[1] = test system: NT Pro-BNP (iCell Cardiomyocyte); experiment: NT Pro-BNP ELISA in iCell Cardiomyocyte supernatants; format: cell-based, human; details: iCell Cardiomyocyte; control CT1; 24 hour; UT 2407.521
Experimental: (§1) A secondary screening was performed with 10 drugs identified from primary screening for their ability to induce physiological remodeling using morphometric analysis and measuring the levels of B-type natriuretic peptide (BNP), as a surrogate indicator of the hypertrophic response using ELISA. The compounds were selected based on the highly enriched targets identified in the drug set enrichment analysis with a high Z score. Cryopreserved iPS cell-derived cardiomyocytes (“iCell Cardiomyocytes”) obtained from Cellular Dynamics International (CDI, Madison, WI) were used as a cell model to perform the screening.
Pro-NT BNP levels in the culture media were measured following the 24 hour treatment using the Human NT Pro-BNP DuoSet ELISA kit (R&D Systems, Minnesota USA) as per the manufacturer's instruction. […] The plates were read on BMG BioTek Molecular Devices SpectraMax Microplate Reader at 450 nm to obtain the optical density followed by reading at 540 nm for wavelength correction.
Protein levels were identified by plotting a 4 parametric logistic regression curve using the standards provided with the kit.

[2] = test system: neonatal rat ventricular cardiomyocytes; experiment: Calcium transients (Fura2-AM) in neonatal rat ventricular cardiomyocytes; format: cell-based
Experimental: Method: Freshly isolated wildtype neonatal rat ventricular cardiomyocytes were plated onto laminin coated glass coverslides, rinsed once and then loaded with 1 μM Fura2-AM (Life Technologies) for 15 min at 37 °C. After washing the cells thrice with Tyrode solution, measuring chambers were transferred onto a Nikon Eclipse TE2000-U microscope equipped with a fluorescence detection system (IonOptix). Ca^2+ transient values were recorded according to the corresponding FRET experiments. F340/F380 values in Fura2-AM experiments were calculated from the ratios of 510 nm emission light measured at 340 and 380 nm excitations.

[3] = test system: cardiomyocytes (NRVMs); experiment: Oxygen consumption rate of cardiomyocytes (Seahorse Mito Stress Test); format: cell-based, neonatal rat; details: 24 h treatment; vs untreated control; FIG. 12
Experimental: OCR detection of cardiomyocytes was conducted with the Seahorse Xfe 24 analyzer (Agilent, Santa Clara, USA). Cardiomyocytes were seeded at a density of 8×10^4/well in a special Seahorse 24-well plate (102342-100, Seahorse). After treating with hCT1, PE and drug for 24 h, the medium was replaced with XF medium containing 10 mM D-(+)-glucose (G7021, Sigma-Aldrich), and 1 mM sodium pyruvate (11360070, Thermo Fisher). The plates were placed in a CO2-free 37 °C incubator for an hour before the measurement. A Seahorse XF Cell Mito Stress Test Kit (103015-100, Seahorse) was used for detection. The basal respiration of the NRVMs was detected, and ATP-linked OCR was analyzed after treatment with 1 μM oligomycin (ATP synthase inhibitor). Then, the uncoupling agent carbonyl [COMPOUND LEFT OUT] 4-(trifluoromethoxy) phenylhydrazone (FCCP) 0.5 μM was injected to detect maximal respiration. Finally, rotenone and antimycin A (AR) were used to abolish mitochondrial respiration by inhibiting complexes I and III, respectively.

[4] = test system: primary neonatal rat ventricular myocytes (NRVM); experiment: Primary screen of 800 compounds for cardiomyocyte length (Cellomics Arrayscan morphometry, NRVM); format: cell-based, Sprague Dawley rat; details: compared to PE-treated cardiomyocyte and a control; 24 hour treatment
Source text: (§2) A library of 800 small molecule compounds that can stimulate favorable cardiac adaptation in primary neonatal rat ventricular myocytes (NRVM) was screened. To identify the beneficial modifiers of hypertrophy, the Cellomics Arrayscan High Throughput Screening platform was employed to quantify morphometric features such as, for example, length, width, and length to width ratio from images acquired using a 10× lens for DAPI-labeled nuclei and CY3 labeled α actinin stained cardiomyocytes in a 96 well format. The lead compound was also screened in iPSC derived cardiomyocytes as a part of secondary screening as it offers a physiologically relevant human cell-based model.
Neonatal rat ventricular myocytes (NRVM) were isolated from 2-day-old Sprague Dawley rat pups. The NRVM were cultured in plating media (Dulbecco Modified Eagle Media, 10% Fetal Bovine Serum, 100 U/mL penicillin, and […] streptomycin) at a density of 10,000 cells per well in a 96 well plate format. One day after isolation, myocytes were switched to serum-free maintenance media for 24 hours. […]
An algorithm was developed in Cellomics Arrayscan Vti HCS reader to measure the morphological characteristics such as cardiomyocyte length, width, length-width ratio, cell area, and the intensity of α-actinin. […]

[5] = test system: iPS cell-derived cardiomyocytes (iCell Cardiomyocytes); experiment: Secondary screening: morphometric analysis of iCell Cardiomyocytes; format: cell-based, human; details: 24 hours
Source text: as §2, §1
The cells were plated at a density of 2.5×10^4 cells onto 25 mm diameter fibronectin coated glass coverslips in plating media for 48 hours. The media was replaced with Supplemented William's E (SWE) medium (SWE) media supplemented with cocktail containing penicillin-streptomycin, ITS+(insulin, transferrin, selenium complex, BSA, and linoleic acid), GlutaMAX™, and HEPES (Primary Hepatocyte Maintenance Supplements-GIBCO) for 48 hours. The cells were treated with controls (CT1-40 ng/mL, PE-100 uM) and drugs (AZD1152-HQPA, LY283519) at varying concentrations (2.5, 1, 0.5, and 0.25 uM) for 24 hours.
Post treatments, the cells were washed, fixed and treated with primary antibody, secondary antibody similar to the protocol of Example 3. The effect on the morphometric parameters was assessed using Cellomics Arrayscan Vti HCS reader. The Image acquisition was performed using the Zeiss AxioVision SE64 Imaging software and analyzed using the ImageJ2 software.
iCell cardiomyocytes were seeded at a density of 10,000 cells per well in a 96 well plate format. The cells were maintained as in Example 3 and were treated with controls (hCT1, PE) and drugs (AZD1152-HQPA, LY283519) at four different concentrations for 24 hours. The cells were then fixed and stained with a Actinin for cardiomyocytes followed by nuclear staining with DAPI. The plates were analyzed in Cellomics Arrayscan Vti HCS reader to assess morphometric changes following treatment.

B1: CT1: Cardiotrophin 1 at 40 ng/mL was used as a positive control (protein, UniProt Q16619 1-201, looked up)
Cardiotrophin-1: MSRREGSLEDPQTDSSVSLLPHLEAKIRQTHSLAHLLTKYAEQLLQEYVQLQGDPFGLPSFSPPRLPVAGLSAPAPSHAGLPVHERLRLDAAALAALPPLLDAVCRRQAELNPRAPRLLRRLEDAARQARALGAAVEALLAALGAANRGPRAEPPAATASAASATGVFPAKVLGLRVCGLYREWLSRTEGDLGQLLPGGSA
Mean NT Pro-BNP levels [1]: 2240.774 pg/mL
area under the curve (AUC) of calcium transient ([2]; compared to control, FIG. 11): increased AUC compared to control
calcium transient levels ([2]; compared to control, FIG. 11): increase in calcium transient levels compared to control
contractility / contractile function ([2]; inferred from peak calcium transient, AUC and time to peak): improved contractility by modest increase in peak calcium transient levels and AUC with modest decrease in time to attain those peak levels
oxygen consumption rate (OCR) [3]: increase the rate of oxygen consumption
length of cardiomyocyte [4]: increase in the length of cardiomyocyte
Mean Cardiomyocyte Length ([5]; iCell Cardiomyocyte, positive control CT1, 40 ng/mL, UT 213.01323): 229 µm
length in iCell cardiomyocyte compared to hCT1 ([5]; iCell cardiomyocytes, 96 well, four concentrations): positive modulator of cardiomyocyte length
